We go through five molecules from patent US10022453B2 (BAYER PHARMA AKTIENGESELLSCHAFT, priority 2013, dated 2018).

Positions count from the first letter of the chain named. A value given as a limit tells only on which side of the number the result lay.

One data set deals with Caco-2 cells. The data set can be described thus: Cell permeability, flux assay using Caco-2 cells. For orientation: Caco-2 monolayers are a common model of the intestinal barrier.
Data set [1] addresses T1, recombinant human TWEAKR protein (TPP-2305) (Homo sapiens, UniProt Q9NP84).
T1 construct: purchased Fitzgerald Inc 30R-AT080
Kind of data set: Binding affinities by Biacore analysis. The following applies: monovalent. Here is the method: Determination of Binding Affinities by Biacore Analysis:
Binding affinities of anti-TWEAKR antibodies were examined using surface plasmon resonance analysis on a Biacore T100 instrument (GE Healthcare Biacore, Inc.). The antibodies were immobilized on a CM5 sensor chip using an indirect capture reagent, anti-human IgG(Fc). […] Anti-TWEAKR antibodies were injected at a concentration of 10 μg/ml at […] for 10 sec.
Sensorgrams were generated after in-line reference cell correction, followed by subtraction of the buffer sample. The dissociation constant (KD) was calculated based on the ratio of association (kon) and dissociation (koff) constants, obtained by fitting sensorgrams using a 1:1 first order binding model.

The target of the next data set is T2, TWEAKR-Fc WT (TPP-599) (Homo sapiens, UniProt Q9NP84).
T2 construct: hTNFRSF12 amino acids a28-80-hIgG1-Fc
Kind of data set: ELISA, effect of TWEAKR-Fc muteins on antibody binding. The following applies: 62 ng/ml TWEAKR-Fc coated, biotinylated IgG from 100 nM. Here is the method:
(§1) Effect of TWEAKR-Fc Muteins on the Antibody Affinity
(§2) To this end, the full-length ectodomain (amino acids 28-80) having the individual amino acid substitutions below were expressed and purified as Fc fusion proteins: T33Q; S40R; W42A; M50A; R56P; H60K; L65Q.
(§3) Detection was carried out using streptavidin-HRP and Amplex Red.
(§4) The dose-reaction data were fitted and the IC50s were determined.
(In general: An ELISA detects its analyte on a solid surface through an enzyme-linked reagent.)

The next data set has as its target T3, TWEAKR-Fc mutein H60K (Homo sapiens, UniProt Q9NP84, H60K).
T3 construct: the full-length ectodomain (amino acids 28-80); made in house
The data set is described as above. The following applies: 62 ng/ml mutein coated, biotinylated IgG from 100 nM. The protocol: as §1, §2, §3, §4

In another data set the target is T4, TWEAKR-Fc mutein L65Q (Homo sapiens, UniProt Q9NP84, L65Q).
T4 construct: the full-length ectodomain (amino acids 28-80); made in house
Described as above. The following applies: 62 ng/ml mutein coated, biotinylated IgG from 100 nM. The protocol:
as §1, §2, §3, §4

In the next data set the target is T5, TWEAKR-Fc mutein M50A (Homo sapiens, UniProt Q9NP84, M50A).
T5 construct: the full-length ectodomain (amino acids 28-80); made in house
The description is as above. The following applies: 62 ng/ml mutein coated, biotinylated IgG from 100 nM. The protocol:
as §1, §2, §3, §4

For another data set, the target named is T6, TWEAKR-Fc mutein R56P (Homo sapiens, UniProt Q9NP84, R56P).
T6 construct: the full-length ectodomain (amino acids 28-80); made in house
The description is as above. The following applies: 62 ng/ml mutein coated, biotinylated IgG from 100 nM. Here is the method: as §1, §2, §3, §4

For another data set, the target named is T7, TWEAKR-Fc mutein S40R (Homo sapiens, UniProt Q9NP84, S40R).
T7 construct: the full-length ectodomain (amino acids 28-80); made in house
The data set is described as above. The following applies: 62 ng/ml mutein coated, biotinylated IgG from 100 nM. The protocol:
as §1, §2, §3, §4

The next data set addresses T8, TWEAKR-Fc mutein T33Q (Homo sapiens, UniProt Q9NP84, T33Q).
T8 construct: the full-length ectodomain (amino acids 28-80); made in house
The description is as above. The following applies: 62 ng/ml mutein coated, biotinylated IgG from 100 nM. The protocol:
as §1, §2, §3, §4

A further data set addresses T9, TWEAKR-Fc mutein W42A (Homo sapiens, UniProt Q9NP84, W42A).
T9 construct: the full-length ectodomain (amino acids 28-80); made in house
The description is as above. The following applies: 62 ng/ml mutein coated, biotinylated IgG from 100 nM. The protocol:
as §1, §2, §3, §4

Data set [2] has as its target T1, recombinant human TWEAKR protein (TPP-2305). The following applies: published data (WO2009/020933, WO2009/140177, literature); cited from earlier work.

Broadly, the IC50 is the midpoint of a concentration-inhibition curve. One may read the Kd as the equilibrium constant for the complex coming apart.

Take `CC(C)(C)[C@H](c1nn(-c2cc(F)ccc2F)cc1Cc1ccccc1)N(CC[C@H](N)C(=O)NCCC(=O)NCCN1C(=O)CC(SC[C@H](N)C(=O)O)C1=O)C(=O)CO.O=C(O)C(F)(F)F` (stereo partly shown) [Example 92]: the “Papp (B-A)” value in the data set with Caco-2 cells (Caco-2, 2 hours) amounted to 0.4 ×10⁻⁶ cm/s. In the data set with Caco-2 cells (Papp (B-A) to Papp (A-B), Caco-2), the Efflux ratio worked out at 3.

B1: P3G5(TPP-2195): comparative anti-TWEAKR antibody; variable domains from WO2009/140177, constant region added, "resulting in full-length IgGs" (protein)
light: DIVLTQSPASLAVSLGQRATISCRANKSVSTSSYSYMHWYQQKPGQPPKLLIKYASNLESGVPARFSGSGSGTDFILNIHPVEEEDAATYYCQHSRELPFTFGSGTKLEIKRADAAPTVSIFPPSSEQLTSGGASVVCFLNNFYPKDINVKWKIDGSERQNGVLNSWTDQDSKDSTYSMSSTLTLTKDEYERHNSYTCEATHKTSTSPIVKSFNRNEC
heavy: QVQLQQSGPEVVRPGVSVKISCKGSGYTFTDYGIHWVKQSHAKSLEWIGVISTYNGYTNYNQKFKGKATMTVDKSSSTAYMELARLTSEDSAIYYCARAYYGNLYYAMDYWGQGTSVTVSSAKTTAPSVYPLAPVCGDTTGSSVTLGCLVKGYFPEPVTLTWNSGSLSSGVHTFPAVLQSDLYTLSSSVTVTSSTWPSQSITCNVAHPASSTKVDKKIEPRGPTIKPCPPCKCPAPNLLGGPSVFIFPPKIKDVLMISLSPIVTCVVVDVSEDDPDVQISWFVNNVEVHTAQTQTHREDYNSTLRVVSALPIQHQDWMSGKEFKCKVNNKDLPAPIERTISKPKGSVRAPQVYVLPPPEEEMTKKQVTLTCMVTDFMPEDIYVEWTNNGKTELNYKNTEPVLDSDGSYFMYSKLRVEKKNWVERNSYSCSVVHEGLHNHHTTKSFSRTPG
modifications: Mus Musculus
In the case of B1, the “ka” value in [1] was 2.31e+06 M⁻¹ s⁻¹. Besides, the “kd” value in data set [1] came to 0.00122 s⁻¹. For the same molecule, the IC50 in the data set with TWEAKR-Fc WT (TPP-599), in the data set with TWEAKR-Fc mutein H60K, in the data set with TWEAKR-Fc mutein L65Q, with TWEAKR-Fc mutein M50A, with TWEAKR-Fc mutein R56P and in the data set with TWEAKR-Fc mutein S40R was 0.001 to 0.15 nM throughout. Also, the results for the half-maximal inhibitory concentration (IC50) with TWEAKR-Fc mutein T33Q and with TWEAKR-Fc mutein W42A were 0.001 to 0.15 nM and greater than 50 nM, respectively.

B2: 18.3.3(TPP-2193): comparative anti-TWEAKR antibody; variable domains from WO2009/020933, constant region added, "resulting in full-length IgGs" (protein)
light: DIVLTQSPASLAVSLGQRATISCKASQSVSTSTYSYMQWYQQRPGQSPKLLIKYASKLDSGVPARFSGSGSGTDFTLNIHPVEEEDTATYYCQHSWELPYTFGGGTRLEIKRADAAPTVSIFPPSSEQLTSGGASVVCFLNNFYPKDINVKWKIDGSERQNGVLNSWTDQDSKDSTYSMSSTLTLTKDEYERHNSYTCEATHKTSTSPIVKSFNRNEC
heavy: EVKLGESGGGLVQPGGSMKLSCVASGFPFTKYWMNWVRQSPEKGLEWVAEIRLKSDNYATHYAESAKGRFTISRDDSRSSVYLQMNNLRAEDTAIYYCSPTYADTMDYWGQGTSVTVSSAKTTAPSVYPLAPVCGDTTGSSVTLGCLVKGYFPEPVTLTWNSGSLSSGVHTFPAVLQSDLYTLSSSVTVTSSTWPSQSITCNVAHPASSTKVDKKIEPRGPTIKPCPPCKCPAPNLLGGPSVFIFPPKIKDVLMISLSPIVTCVVVDVSEDDPDVQISWFVNNVEVHTAQTQTHREDYNSTLRVVSALPIQHQDWMSGKEFKCKVNNKDLPAPIERTISKPKGSVRAPQVYVLPPPEEEMTKKQVTLTCMVTDFMPEDIYVEWTNNGKTELNYKNTEPVLDSDGSYFMYSKLRVEKKNWVERNSYSCSVVHEGLHNHHTTKSFSRTPG
modifications: Mus Musculus
For the molecule B2, in [1], the “ka” value came to 1.64e+07 M⁻¹ s⁻¹. Besides, the “kd” value in data set [1] worked out at 0.0285 s⁻¹. The 50% inhibitory concentration (IC50) with TWEAKR-Fc WT (TPP-599) was 0.001 to 0.15 nM; in the data set with TWEAKR-Fc mutein H60K it was 0.001 to 0.15 nM; with TWEAKR-Fc mutein L65Q, 0.001 to 0.15 nM; in the data set with TWEAKR-Fc mutein M50A it was 0.001 to 0.15 nM; in the data set with TWEAKR-Fc mutein R56P, greater than 50 nM; with TWEAKR-Fc mutein S40R, 0.001 to 0.15 nM. For the same molecule, the IC50 with TWEAKR-Fc mutein T33Q was 0.001 to 0.15 nM; with TWEAKR-Fc mutein W42A, greater than 50 nM. Besides, the Kd in data set [2] is 0.2 nM.

B3: 136.1: "agonistic antibodies already described [e.g. PDL-192(TPP-1104), P4A8(TPP-1324), 136.1(TPP-2194)]" (protein)
light: B2 light with A12T, K24R, T33S, S47P, S56T, K57N, T87A, L98I, R107K
heavy: EVKLEESGGGLVQPGGSMKLSCVASGFTFNNYWMSWVRQSPEKGLEWLAEIRLKSDNYATHYAESVKGKFTISRDDSKSRLYLQMNNLRAENTGIYYCTGGFADYFDYWGQGTTLTVSSAKTTAPSVYPLAPVCGDTTGSSVTLGCLVKGYFPEPVTLTWNSGSLSSGVHTFPAVLQSDLYTLSSSVTVTSSTWPSQSITCNVAHPASSTKVDKKIEPRGPTIKPCPPCKCPAPNLLGGPSVFIFPPKIKDVLMISLSPIVTCVVVDVSEDDPDVQISWFVNNVEVHTAQTQTHREDYNSTLRVVSALPIQHQDWMSGKEFKCKVNNKDLPAPIERTISKPKGSVRAPQVYVLPPPEEEMTKKQVTLTCMVTDFMPEDIYVEWTNNGKTELNYKNTEPVLDSDGSYFMYSKLRVEKKNWVERNSYSCSVVHEGLHNHHTTKSFSRTPG
modifications: Mus Musculus
B3: the dissociation constant Kd in data set [2] was 0.7 nM.

B4: 136.1(TPP-2194): comparative anti-TWEAKR antibody; variable domains from WO2009/020933, constant region added, "resulting in full-length IgGs" (protein)
light: B2 light with A12T, K24R, T33S, S47P, S56T, K57N, T87A, L98I, R107K
heavy: B3 heavy
modifications: Mus Musculus
With B4, the “ka” value in data set [1] came out at 3.84e+07 M⁻¹ s⁻¹. The “kd” value in data set [1] was determined as 0.0324 s⁻¹. Besides, the concentration for half-maximal inhibition (IC50) with TWEAKR-Fc WT (TPP-599) was 0.001 to 0.15 nM; in the data set with TWEAKR-Fc mutein H60K it was 0.001 to 0.15 nM; in the data set with TWEAKR-Fc mutein L65Q it was 0.001 to 0.15 nM; in the data set with TWEAKR-Fc mutein M50A, 0.001 to 0.15 nM; with TWEAKR-Fc mutein R56P, greater than 50 nM; with TWEAKR-Fc mutein S40R it was 0.001 to 0.15 nM. Further, the values for the IC50 in the data set with TWEAKR-Fc mutein T33Q and with TWEAKR-Fc mutein W42A were 0.001 to 0.15 nM and greater than 50 nM, respectively.
